Changes are numbered by the printed parent chain. Names may count otherwise. Blank lines part the entries; values can stand above or below the molecule they belong to.
Test system: HDAC1 binding to H4K5,12diac
Test: In vitro competition with HDAC1 for immobilized H4K5,12diac peptides (direct binding pull down)
Conditions: full length ATAD2 0.22 μM pre-incubated 2 h, then 0.1 μM HDAC1 2 h; 1 μM peptide
Protocol: H4 peptides (1-25) conjugated with Biotin was immobilized on Streptavidin-coupled Dynabeads for 2 hours at 4 °C and incubated with nuclear extract from MCF7 cells. Nuclear extract was prepared by first isolating nucleus in hypotonic buffer (10 mM Tris-HCl pH 8.5, 10 mM NaCl, 0.5 mM TCEP and 0.1 % NP-40) and disrupting nuclear envelop in high salt buffer (20 mM Tris-HCl pH 8.5, 420 mM NaCl, 0.5 mM TCEP, 0.1 % Triton X-100, 25 % Glycerol) for 2 hours at 4 °C. Soluble nuclear extract was harvested by centrifugation at 20000 g for 20 min and diluted to 1:3 in buffer without NaCl in order to achieve physiological salt concentration, 140 mM. The nuclear extract was incubated with the immobilized peptides on the Streptavidin-Dynabeads overnight at 4 °C. Next day, the beads were washed three times with washing buffer (20 mM Tris-HCl pH 8.5, 140 mM NaCl, 0.5 mM TCEP, 0.1 % Triton X-100, 25 % Glycerol) and twice with high salt buffer. Bound proteins were recovered by boiling the beads in 1X sample buffer for 5 min. at 95 °C and analyzed by SDS-PAGE and Western Blotting. For direct binding experiments 1 μM of immobilized histone peptides on Streptavidin-Dynabeads were incubated with indicated amounts of ligands for 2 hours at 4 °C. After stringent washing as described above, bound proteins were analyzed in Western Blotting.

competition with HDAC1 for interaction with H4K5,12diac: competes
B1: WT ATAD2: recombinant FLAG-tagged full length ATAD2 purified from HEK 293 cells (protein)
chain: MVVLRSSLELHNHSAASATGSLDLSSDFLSLEHIGRRRLRSAGAAQKKPAATTAKAGDGSSVKEVETYHRTRALRSLRKDAQNSSDSSFEKNVEITEQLANGRHFTRQLARQQADKKKEEHREDKVIPVTRSLRARNIVQSTEHLHEDNGDVEVRRSCRIRSRYSGVNQSMLFDKLITNTAEAVLQKMDDMKKMRRQRMRELEDLGVFNETEESNLNMYTRGKQKDIQRTDEETTDNQEGSVESSEEGEDQEHEDDGEDEDDEDDDDDDDDDDDDDDEDDEDEEDGEEENQKRYYLRQRKATVYYQAPLEKPRHQRKPNIFYSGPASPARPRYRLSSAGPRSPYCKRMNRRRHAIHSSDSTSSSSSEDEQHFERRRKRSRNRAINRCLPLNFRKDELKGIYKDRMKIGASLADVDPMQLDSSVRFDSVGGLSNHIAALKEMVVFPLLYPEVFEKFKIQPPRGCLFYGPPGTGKTLVARALANECSQGDKRVAFFMRKGADCLSKWVGESERQLRLLFDQAYQMRPSIIFFDEIDGLAPVRSSRQDQIHSSIVSTLLALMDGLDSRGEIVVIGATNRLDSIDPALRRPGRFDREFLFSLPDKEARKEILKIHTRDWNPKPLDTFLEELAENCVGYCGADIKSICAEAALCALRRRYPQIYTTSEKLQLDLSSINISAKDFEVAMQKMIPASQRAVTSPGQALSTVVKPLLQNTVDKILEALQRVFPHAEFRTNKTLDSDISCPLLESDLAYSDDDVPSVYENGLSQKSSHKAKDNFNFLHLNRNACYQPMSFRPRILIVGEPGFGQGSHLAPAVIHALEKFTVYTLDIPVLFGVSTTSPEETCAQVIREAKRTAPSIVYVPHIHVWWEIVGPTLKATFTTLLQNIPSFAPVLLLATSDKPHSALPEEVQELFIRDYGEIFNVQLPDKEERTKFFEDLILKQAAKPPISKKKAVLQALEVLPVAPPPEPRSLTAEEVKRLEEQEEDTFRELRIFLRNVTHRLAIDKRFRVFTKPVDPDEVPDYVTVIKQPMDLSSVISKIDLHKYLTVKDYLRDIDLICSNALEYNPDRDPGDRLIRHRACALRDTAYAIIKEELDEDFEQLCEEIQESRKKRGCSSSKYAPSYYHVMPKQNSTLVGDKRSDPEQNEKLKTPSTPVACSTPAQLKRKIRKKSNWYLGTIKKRRKISQAKDDSQNAIDHKIESDTEETQDTSVDHNETGNTGESSVEENEKQQNASESKLELRNNSNTCNIENELEDSRKTTACTELRDKIACNGDASSSQIIHISDENEGKEMCVLRMTRARRSQVEQQQLITVEKALAILSQPTPSLVVDHERLKNLLKTVVKKSQNYNIFQLENLYAVISQCIYRHRKDHDKTSLIQKMEQEVENFSCSR
modifications: left off: tagGFP, end not stated, kept
notes: recombinant FLAG-tagged full length ATAD2 purified from HEK 293 cells

competition with HDAC1 for interaction with H4K5,12diac: not
B2: ATPase mutant ATAD2: recombinant full length ATPase inactive mutant ATAD2 (K473T and E532Q) (protein)
chain: B1 chain with K473T, E532Q
modifications: left off: tagGFP, end not stated, kept
